{
  "source": "paper PMC6381275",
  "about": "“Structure and Mechanism of LcpA, a Phosphotransferase That Mediates Glycosylation of a Gram-Positive Bacterial Cell Wall-Anchored Protein” (mBio, 2019)",
  "test_system": "CC(C)=CCC/C(C)=C/CC/C(C)=C/CO[P@@](=O)(O)OP(=O)(O)O",
  "assay": "fluorometric inorganic phosphate release assay (pyrophosphatase)",
  "type": "biochemical, Actinomyces oris",
  "details": "20 mM Tris-HCl pH 8.0, 30°C, 24 h, 3 µM enzyme, 0-150 µM FPP",
  "data": [
    {"substance": "LcpA (eLcpA, recombinant extracellular LCP domain) (Actinomyces oris)", "values": [
      {"measurement": "Km", "result": "15.2 ± 3.7", "unit": "µM"}
    ]}
  ]
}
